Source: the nanobody polyreactivity screen of Harvey et al. (2022)

Test: yeast display, Sf9 membrane polyspecificity reagent, FACS + sequencing; frameworks hold sequencing errors
Procedure, shortened: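 Galactose induction of a Saccharomyces cerevisiae BJ5465 synthetic nanobody display library ran 36–48 hours. The cells were then stained for 1 hour at 4 °C with 10% biotinylated, detergent-solubilized Sf9 membrane reagent, pulled down on streptavidin microbeads and FACS-sorted into low and high (top ~1%) gates on expression and reagent-binding fluorescence. Labels for polyreactivity follow the gate of origin.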

| Sequence | polyreactivity (PSR sort gate) |
| --- | --- |
| QVQLQESSGGLVQAGGSLRMSCAASGTIFHFHIIGWYRQAPRKEREFVAASSYGTRTYYADSVKGRFTISRDNAKNTVYLQMNSQKPEDTAVYYCAVYDYLEVYCWYWGQGTQVTVRS | low polyreactivity |
| QVQLVESGGGLVQAGGSLSLSCAASGSTFSLNTKGWYRQAPRKERELVAAITSGGSTNYADSVKGRFTISRDNAKNTVYLQMNSLKPEDTAVYYCAATPGRGGGYNYWGQGSQVTVSS | low polyreactivity |
| QVQLVESGGGLVQAGFSLRLSCAASGSIFFIYDKGWYRQAPGKERELVADITSGGGSTFYADSVKGRFTISRDNAKNTVYLQMNSLKPEDTAVYYCATDDHDQPGGQLYISEVNYWGQGTQVTVSS | low polyreactivity |
| QVQLVESGGGLVQAGGSLRLSCAASGGIFRYYAMGLYRQAPGKERELVASIRRSGGRTYYADSVKGRFTISRDNAKYTVYFQMNSLKPEDTAVYYCNADRLIVTMNSWGQGTQVTVSS | low polyreactivity |
| QVQLVESGGGLVQAGGSLRLSCAASGIIFRYNTMGWYRQAPGKERELVAAISKRGGSTYYADSVKGRFTISRDNAKNTVYLQMNSLKPEDTAVYYCAARYYSASYYNYGYWGQGTQVTVSS | high polyreactivity |
| QVQLVESGGGLVQAGGSLRLSCAASGSIFRFYGMGWYRQAPGKERELVATISWSSGRTSYADSVKGRFTISRDNAKNTVYLQMKSLKPEDTAVYYCNADQWDKSYDYWGQGTQVTVSS | high polyreactivity |
| QVQLVESGGGLVQAGGSLRLSCAASGSIFGYNAMGWYRQAPGKEREFVAAITSGGSTYYADSVKGRFTISRDNAKNTVYLQMNSLKPEDTAVYYCRRRNVYSTRRYDYWGQGTQVTVSS | high polyreactivity |
| QVQLVESGGGLVQAGGSLRLSCAASVSTLSDNAMGWYRQAPGKERELVASISWSGGTYYADSVKGRFTISRDNAKNTVYLQMNSLKPEDTAVYYCAAYIYYNYSRQYWYDYWGQGTQVTVSS | low polyreactivity |
| QVQLVESGGGLVQAGGSLRLSCAASGNIFPDYAMGWYRQAPGKERELVAAISTSGSSTYYADSVKGRFTISRDNAKNNDYLQMNSLKPEDTAVYYCNAYRNADYVYWGQGTQVTVSS | low polyreactivity |
| QVQLVESGGGLVQAGGSLRLSCAASGFIFRQYVMGWYRQAPGKERELVAAISWRTTSTYYADSVKGRFTISRDNAKNTVYLQMNSLKPEDTAVYYCAAPQVWWGYYTRGVDYWGQGTQVTVSS | low polyreactivity |
| QVQLVESGGGIVQAGGSLRLSCSASGFSFSSYAMGWYRQAPGKERELVASITWSGGRTYYADSVKGRFTISRDNAKNTVYLQMNSLKPEDTAVYYCAPGDVNWSYSLLYTVVLFDSWGQGTQVTVSS | high polyreactivity |
| QVKLVESGGGLVQAGGSLRLSCAASGSIFLSYAMGWYRQAPGKDRELVAAISGGGGSTYYADSVKGRFTISRDNAKNTVYLQMNSLKPEDTAVYYCAADYYYGDALSPYYPHWDFYYWGQGTQVTVSS | low polyreactivity |
| QVQLVESGGGLVQAGGSLRLSCAASGSTFTAYAMGWYRQATREDRELVARIGGTYYADSVKGRFTISRDNAKNTVYLQMNSLKPEDTAVYYCAAEYGYDFFRSYQEYGYWGQGTQVTVSS | low polyreactivity |
| QVQLVVSGGGLVQAGGSLRLSCAASGITFGRNTMGWYRQAPGKERELVAAIDSGGNTYADSVKGRFTISRDNAKNTVYLQMNSLKPEDTAVYYCAVDGGEFSSYGYWGQGTQVTVSS | low polyreactivity |
| QVQLVESGGGLVQAGGSLRLSCAASGRTFRYYAMGWYRQAPGKERELVAAITISSGSTYYADSVKGRFTISRDNAKNTVYLQMNSLKPEDTAVYYCAATRRYHFDYWGQGTQVTVSS | high polyreactivity |
| QVQLVESGGGLVQAGGSLRLSCAASRITFSLYAMGWYRQAPGKERELGAAISRGGSTKYADSVKGRFTISRDNAKNTVYLQMNSLKPEDTAVYYCNASARTYGGQTWNYYWGQGTQVTVSS | high polyreactivity |
| QVQLVESGGGLVQAGGTLRLRCAPSGSIFWGNAIGWYRQAPGKERELVAAIDWSGGSTYYADSVKGRFTISRDNAKNTVYLLMYSLKPEDTAVYFCAASGRYDYDYWGQGTQVTVSS | low polyreactivity |
| QVQLVESGGGLVQAGGSLRLSCAASGSTFFYNAMGWYRQAPGKERELVAAISWSGGRTYYADSVKGRFTISRDNAKNTVYLQMNSLKPEDTAVYYCNTVVSKYYKVGFGSWGHGTQVTVSS | high polyreactivity |
| QVQLVESGGGLVQAGGSLRLSCAASGRIFVHYAMGWYRQAPGKERELVAAISWNGGRTFYADSVKGRFTISRDNEKYTVYLQMNSLKPEDTAVYYCAALSRYSLDYWGQGTQVTVSS | high polyreactivity |
| QVQLVESGGGLVQAGGSLRLSCAASLRTFAWYAMGWYRQAPGKERELVAAITNRGSGTYYADSVKGRFTISRDNAKNTVYLQMNSLKPEDTAVYYCAKDPITATTLDERVFYWGQGTQVTLSS | low polyreactivity |
| QVQLVESGGGLVQAGGSLRLSCAASGSTFWYYAMGWYRQAPGKERELVATITTSGGNTYYADSVKGRFTISRDNAKNTVYLQMNSLKPEDTAVYYCAARRYRASSRGYGYWGQGTQVTVSS | high polyreactivity |
| QVQLVESGGGLVQAGGSLRLSCAASGSSFAGNAMGWYRQAPGKERELVAAIDSSTGSTYYADSVKGRFTISRDNAKNTVYLQMNSLKPEDTAVYYCNKTSFLVKLDYWGQGTQVTLSS | low polyreactivity |
